Experimental data published in patent US20070122380A1 (UNIVERSITY OF CONNECTICUT, published 2007).

Molecular target: T1, c-Met (mouse, UniProt P16056 25-1379)
T1 construct: whole, on cells; also called HGFR; HGF receptor
Assay: confocal microscopy of cells stained with anti-IL-7R-alpha and anti-c-Met; co-localisation on scIL-7/HGF-beta-stimulated cells and on pre-pro-B cells of normal BM
From the text: Consistent with these blocking experiments, approximately 60% of the scIL-7/HGF-beta culture-generated CLPs and pre-pro-B cells expressed both c-Met and the IL-7R, whereas more than 80% at the rIL-7 culture-generated pro-B cells expressed the IL-7R only (data not shown). […] However, as noted previously for native IL-7/HGF-beta, scIL-7/HGF-beta was able to “prime” pre-pro-B/pro-B cells to respond to rIL-7 (FIG. 32D), presumably by up-regulating the IL-7R-alpha chain. […] Direct evidence that both the IL-7R (alpha and gamma-c chains) and c-Met are major components of the receptor complex for IL-7/HGF-beta was provided on Western blots after purification of receptor proteins from culture-generated CLPs/pre-pro-B cells on a scIL-7/HGF-beta affinity gel (FIG. 34).

B1: IL-7R (alpha and gamma-c chains) (receptor, mouse)
chain 1: ESGNAQDGDLEDADADDHSFWCHSQLEVDGSQHLLTCAFNDSDINTANLEFQICGALLRVKCLTLNKLQDIYFIKTSEFLLIGSSNICVKLGQKNLTCKNMAINTIVKAEAPSDLKVVYRKEANDFLVTFNAPHLKKKYLKKVKHDVAYRPARGESNWTHVSLFHTRTTIPQRKLRPKAMYEIKVRSIPHNDYFKGFWSEWSPSSTFETPEPKNQGGWDPVLPSVTILSLFSVFLLVILAHVLWKKRIKPVVWPSLPDHKKTLEQLCKKPKTSLNVSFNPESFLDCQIHEVKGVEARDEVESFLPNDLPAQPEELETQGHRAAVHSANRSPETSVSPPETVRRESPLRCLARNLSTCNAPPLLSSRSPDYRDGDRNRPPVYQDLLPNSGNTNVPVPVPQPLPFQSGILIPVSQRQPISTSSVLNQEEAYVTMSSFYQNK
chain 2: WSSKVLMSSANEDIKADLILTSTAPEHLSAPTLPLPEVQCFVFNIEYMNCTWNSSSEPQATNLTLHYRYKVSDNNTFQECSHYLFSKEITSGCQIQKEDIQLYQTFVVQLQDPQKPQRRAVQKLNLQNLVIPRAPENLTLSNLSESQLELRWKSRHIKERCLQYLVQYRSNRDRSWTELIVNHEPRFSLPSVDELKRYTFRVRSRYNPICGSSQQWSKWSQPVHWGSHTVEENPSLFALEAVLIPVGTMGLIITLIFVYCWLERMPPIPPIKNLEDLVTEYQGNFSAWSGVSKGLTESLQPDYSERFCHVSEIPPKGGALGEGPGGSPCSLHSPYWPPPCYSLKPEA
notes: whole, on cells; also called IL-7 receptor
  binding result: binds
